According to article PMC4162605:

Test system: P49302
Test: […] (DSC); […] (40 mM tris, pH 8.0, 0.5 M ([…]; 1 mg/mL; […]) dissociation
Conditions: other: differential scanning calorimetry (DSC)

“unmodified murine polyomavirus VP1 capsomere, as used for DSC” showed a dHm of capsomere dissociation (first DSC endotherm) of 87.6 kcal/mol.
